# B1: Ki-4 single-chain variable fragment (scFv), soluble (scFv, V domains shown)
# VH: QVKLQESGTELAKPGAAVKMSCKASGYTFTDYWMHWVKQRPGQGLEWIGYINPNTAYTDYNQKFKDKATLTADKSSSTAYMQLRSLTSEDSAVYYCAKKTTQTTWGFPFWGQGTTVTVSS
# VL: DIVLTQSPKSMAMSVGERVTLSCKASENVDSFVSWYQQKPGQSPKLLIYGASNRYTGVPDRFAGSGSGRDFTLTISSVQAEDLADYHCGQNYRYPLTFGAGTKLEIK
# notes: also called Ki-4 scFv; His-tagged Ki-4 scFv
# B2: anti-CD30 monoclonal antibody Ki-4 (antibody, V domains shown)
# VH: B1 VH
# VL: B1 VL
# notes: also called Ki-4 mAb; Ki-4 whole antibody; copies: 2 + 2
# Target: T1, extracellular domain of the human CD30 receptor fused to the hinge, CH2 and CH3 domain of human IgG1 … (Homo sapiens (Human)., UniProt P28908)
# T1 construct: also called recombinant, human sCD30-Fc protein
# Experiment: SPR; BIAcore 2000; sCD30-Fc covalently coupled to a CM-5 sensorchip (450 RU, 'low density'); surface saturated by multiple injections of antibody or fragment, flow 20 ul/min; dissociation rates by curve fitting (monovalent for the scFv, bivalent for the mAb)
# Conditions: both partners purified
# T1 sequence (P28908 19-385): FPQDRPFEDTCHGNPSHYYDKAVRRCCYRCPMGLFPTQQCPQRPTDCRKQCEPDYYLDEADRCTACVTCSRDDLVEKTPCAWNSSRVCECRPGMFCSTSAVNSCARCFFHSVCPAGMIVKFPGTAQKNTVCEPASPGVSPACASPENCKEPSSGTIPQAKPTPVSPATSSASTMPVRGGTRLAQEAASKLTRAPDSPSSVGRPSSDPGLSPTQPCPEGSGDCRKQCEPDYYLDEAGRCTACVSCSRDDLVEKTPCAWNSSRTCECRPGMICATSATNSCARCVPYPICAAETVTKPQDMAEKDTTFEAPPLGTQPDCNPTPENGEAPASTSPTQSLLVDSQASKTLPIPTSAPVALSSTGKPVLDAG
Binder,koff [s⁻¹],t1/2 of the antibody-antigen complex (=ln2/koff) [h]
B1,0.00018,1.07
B2,0.00012,1.6
